Reference: the MegaScale stability set (Tsuboyama et al. 2023)

B1: 5KPH (parent)
chain: EEKRQVKQVAKEKLLEQSPNSKVQVRRVQKQGNTIRVELELRTNGKKENYTVEVERQGNTWTVKRITRT

Variants of: B1
Assay: folding stability dG (cDNA display proteolysis); higher = more stable
Conditions: PBS, room temperature

Row | Variant | folding stability dG [kcal/mol]
1 | Q24K | 4.33
2 | Q24G | 3.09
3 | S18K | 3.83
4 | S18E | 3.57
5 | T51L | 3.99
6 | T51W | 3.98
7 | L15I | 3.02
8 | L15V | 3.01
9 | L15K | 3.36
10 | L15G | 2.53
11 | R68L | 4.21
12 | K46N | 3.81
13 | K46W | 3.7
14 | K46A | 3.65
15 | K46Y | 3.93
16 | K46D | 3.43
17 | E38W | 4.29
18 | E38F | 4.66
19 | E38G | 3.2
20 | E38K | 3.7
21 | E38N | 3.51
22 | E38Y | 4.76
23 | V25M | 2.63
24 | E55A | 3.45

Row | Variant | folding stability dG [kcal/mol]
25 | E55C | 3.34
26 | R65Q | 3.84
27 | R65D | 3.59
28 | W61E | 0.848
29 | W61D | 1.07
30 | W61Y | 4.03
31 | R56H | 3.38
32 | R56Y | 3.72
33 | R56W | 4.17
34 | N44T | 3.27
35 | N44M | 3.84
36 | T34W | 3.65
37 | T34H | 3.57
38 | T34F | 3.81
39 | T34A | 3.62
40 | E48M | 3.55
41 | E48Q | 3.7
42 | G58N | 3.7
43 | G58H | 3.4
44 | G58E | 3.7
45 | S21H | 2.6
46 | S21L | 2.57
47 | I66C | 2.88
48 | N59Q | 3.77

Row | Variant | folding stability dG [kcal/mol]
49 | N59V | 3.42
50 | N59T | 3.77
51 | N59I | 3.54
52 | E2P | 2.94
53 | E2Q | 3.9
54 | E2R | 3.19
55 | K47I | 4.14
56 | K47H | 3.94
57 | K47M | 3.77
58 | K47P | 3.31
59 | K47G | 3.03
60 | K47C | 3.64
61 | K47N | 3.59
62 | T62F | 4.24
63 | T62D | 3.13
64 | T62Q | 3.92
65 | Q17I | 4.39
66 | Q17C | 3.75
67 | N33G | 3.58
68 | R26I | 4.25
69 | R26Q | 3.49
70 | Q57M | 3.89
71 | L41M | 3.89
72 | E16H | 3.17

Row | Variant | folding stability dG [kcal/mol]
73 | T43F | 3.87
74 | T43A | 3.72
75 | T69D | 3.73
76 | T69W | 4.08
77 | T69H | 4.21
78 | A10N | 1.88
79 | A10D | 1.8
80 | A10C | 3.26
81 | A10K | 1.92
82 | K30N | 3.76
83 | K30A | 4.22
84 | K30S | 4.32
85 | V54N | 0.723
86 | V54K | 1.28
87 | E12M | 3.67
88 | E12S | 3.79
89 | V63Q | 1.16
90 | T60I | 4.11
91 | R4L | 3.54
92 | R4I | 3.04
93 | R4C | 3.57
94 | Q8V | 3.31
95 | Q8F | 3.03
96 | Q8L | 3.51

Row | Variant | folding stability dG [kcal/mol]
97 | V28E | 1.75
98 | V28F | 3.91
99 | V28A | 3.15
100 | K64N | 3.48
101 | K64H | 3.25
102 | V52I | 3.65
103 | V52C | 2.92
104 | K22F | 4.16
105 | L14P | 1.78
106 | L14A | 3.13
107 | L14H | 1.79
108 | V37K | 0.177
109 | V37M | 2.89
110 | V37N | -0.204
111 | G32H | 3.14
112 | E53S | 3.33
113 | N49M | 4.18
114 | N49S | 3.86
115 | N49R | 4.09
116 | N49Y | 4.3
117 | N49A | 3.73
118 | N49T | 4.14
119 | R27L | 3.53
120 | R27P | 1.38

Row | Variant | folding stability dG [kcal/mol]
121 | R27K | 3.62
122 | R27C | 3.45
123 | T67R | 3.73
124 | T67L | 4.01
125 | T67D | 3.3
126 | T67W | 4.45
127 | Q29G | 3.42
128 | Q29R | 4.17
129 | V6T | 2.66
130 | V6D | 1.95
131 | V6A | 4.84
132 | V6P | 3.55
133 | E1G | 3.49
134 | E1R | 3.25
135 | E1Y | 2.92
136 | K11P | 2.01
137 | K11Q | 3.45
138 | K11Y | 3.32
139 | K11T | 3.86
140 | K11S | 3.8
141 | I35T | 3.82
142 | I35Q | 2.79
143 | I35E | 1.93
144 | I35C | 3.39

Row | Variant | folding stability dG [kcal/mol]
145 | I35D | 1.2
146 | R36Y | 4.54
147 | R36F | 4.35
148 | Q5R | 4.19
149 | Q5W | 3.62
150 | Q5H | 3.77
151 | Y50S | 1.25
152 | Y50L | 2.84
153 | Y50M | 2.58
154 | Y50F | 3.74
155 | Q31P | 1.87
156 | Q31S | 4.03
157 | Q31D | 3.89
158 | K3A | 4.28
159 | K3T | 4.31
160 | K3Q | 4.19
161 | K3R | 4.07
162 | E40V | 4.23
163 | G45A | 3.5
164 | R42M | 3.85
165 | R42T | 4.4
166 | R42V | 4.14
167 | K7P | 2.66
